The values that follow come from patent US20110124556 (published 2011).

Non-standard residues stand in square brackets, D forms with d. No end group written: not given here. *: point of attachment. Biotin = O=C1N[C@H]2[C@H](CS[C@H]2CCCCC(=O)*)N1; Bpa = N[C@@H](Cc1ccc(C(=O)c2ccccc2)cc1)C(=O)O

Sequences and labels used below:
B1: S246 (peptide)
chain 1: ACAWPTYWNCGGGGX
chain 2: FHENFYDWFVRQVSKKX
modifications: not fully specified; listing feature
B2: S217 (peptide)
chain 1: SDGFYNAIELLS
chain 2: SDGFYNAIELLS
B3: S255 (peptide)
chain 1: SDGFYNAIELLSGGGX
chain 2: SDGFYNAIELLSGGGX
modifications: listing feature
B4: S252 (peptide)
chain 1: SDGFYNAIELLSX
chain 2: SDGFYNAIELLSX
modifications: listing feature
B5: S546 (peptide)
chain 1: SLEEEWAQVECEV
chain 2: [Bpa]GRGCPSGSLDESFYDWFERQ[Bpa]GK(Biotin)
modifications: not fully specified (bridges); cysteine pairing not given here; also: chains 1 and 2 form one continuous chain
B6: S563 (peptide)
chain 1: SLEEEWAQIQCEVWG
chain 2: R[dN][dC]SESFYDWFERQL
modifications: cysteine pairing not given here

This experiment concerns the target human insulin receptor (HIR) (human, UniProt P06213). In words: competition.
As a reminder, the Kd is the equilibrium constant for the complex coming apart. Low readings indicate a tighter complex, high ones a looser complex. B1: the Kd was 50 nM.
As to HETFYSMIRSLAK [S117], the Kd is 27 nM.
Then SLEEEWAQIECEVYGRGCPSESFYDWFERQLG [S554], with 0.0064 nM; and HDPFYSMMKSLLK [S120], with 20 nM; and TGHRLGLDEQFYWWFRDALSG [S265], with 110 nM.
Molecule SLEEEWAQVECEVYGRGCPSGGSGGSGLLDESFYHWFDRQLR [S510] came in with a Kd of 0.062 nM.
With B2, binding was characterised by a dissociation constant (Kd) of 3900 nM.
Molecule B3 came in with a Kd of 16 nM.
With HHHHHHKLDQEWAWVQCEVYGRGCPSESFYDWFERQLG [S481], the Kd worked out at 1.3 nM.
Then LDQEWAWVQSEVYGRGSPSESFYDWFERQL [S509], with 5.7 nM; and GSLDESFYDWFERQLGXK (listing feature) [S550], with 40 nM.
Then QLEEEWAGVQCEVYGRECPS [S226], with 16000 nM; and B4, with 440 nM.
The figure for B5 is 26 nM; for SLEEEWAWVECEVYGRGCPSGSLDESFYDWFERQL [S532] it is 0.037 nM; for PLCFLQELFGGASLGGYCSG [S262] it is 19000 nM.
The molecule GRVDWLQRNANFYDWFV [S251] came in with a Kd of 56000 nM.
Then IQGWEPFYGWFDDVVAQMFEE [S264], with 190 nM; and SLEQEWAQVECEVYGRGCPSGSLDESFYDWFERQLG [S538], with 0.038 nM.
The figure for SLEEEWAQVKCEVYGRGCPSGSLDESFYDWFERQLG [S540] is 0.013 nM; for LAQEWAWVQCEVYGRGCPSESFYDWFERQL [S495] it is 2.6 nM.
Take ANFYDWFVAELG [S242]: the Kd is 20000 nM.
Molecule B6 gave a Kd of 0.014 nM.
